± gives the standard deviation of the averaged measurements.

Series [1] deals with VchCAST RNA-guided transposition machinery (E. coli BL21(DE3) host, lacZ target). Briefly: relative integration efficiency (T-RL orientation) vs wild-type transposon end (log2 (normalized fold change)); transposon end mutated: right end (5 bp flank + 75 bp right end); higher = more efficient transposition. In a few lines:
(§1)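 Relative integration efficiency is a fold change of output over input barcode abundance, normalised to reference barcodes and log-transformed. Input plasmids and genomic integration junctions were PCR-amplified and Illumina-sequenced from E. coli BL21(DE3) co-transformed with a T7-driven effector plasmid and pUC57 donor pools of 1549 left-end or 1849 right-end transposon variants. Plating was done with 0.1 mM IPTG at 37°C for 18 h, with two biological output replicates and four reference barcodes.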

The test system is the same in series [2]. Briefly: relative integration efficiency (T-LR orientation) vs wild-type transposon end (log2 (normalized fold change)); transposon end mutated: right end (5 bp flank + 75 bp right end); higher = more efficient transposition. In a few lines:
as §1

For the sequence “ACATTTGTTGATACAACCATAAAAGGATAATTACCCCCATCAATTGATAATTATCACACCCCATTTAACTATAACGCTCTGATCATAGTCAGACCAACATTGCTACGACCCGTATTCGCACCGACAC”, the “relative integration efficiency (log2)” value is -3.19 ± 0.27 in series [1] and -0.157 ± 0.13 in series [2].

Turning to “ACATTTGTTGATACAACCATAAAAGGATAATTACCCCCATCAATTGATAATTATCCCACCCAATTTAACTATAACGCTCTGATCATAGTCAGACCAACATTGCTACGACCCGTATTCGCACCGACAC”, the “relative integration efficiency (log2)” value is -0.787 ± 0.53 in series [1] and 1.91 ± 0.034 in series [2].

In the case of “ACATTTGTTGATACAACCATAAAAGGATAATTACCCCCATCAATTGATAATTATCCCACCCCATTTAACTATAACGCTCTGATCATAGTCAGACCAACATTGCTACGACCCGTATTCGCACCGACAC”, the “relative integration efficiency (log2)” value in series [1] was -2.87 ± 0.26; in series [2], -0.233 ± 0.32.

Turning to “ACATTTGTTGATACAACCATAAAAGGATAATTCACCCATAAATTGATAATTATCACACCCACATTTAACTATAACGCTCTGATCATAGTCAGACCAACATTGCTACGACCCGTATTCGCACCGACAC”, the “relative integration efficiency (log2)” value in series [1] was -2.38 ± 0.38; in series [2] it was 0.902 ± 0.15.

With “ACATTTGTTGATACAACCATAAAAGGATAATTCACCCCTAAATTGATAATTATCACACCCACATTTAACTATAACGCTCTGATCATAGTCAGACCAACATTGCTACGACCCGTATTCGCACCGACAC”, the “relative integration efficiency (log2)” value was -4.49 ± 0.25 in series [1] and -0.705 ± 0.48 in series [2].

As for “ACATTTGTTGATACAACCATAAAAGGATCATTACACCCATAAATTGATAATTATCACACCCAATTTAACTATAACGCTCTGATCATAGTCAGACCAACATTGCTACGACCCGTATTCGCACCGACAC”, the entries for the “relative integration efficiency (log2)” value in series [1] and in series [2] were -2.03 ± 0.18 and 1.34 ± 0.27, respectively.

With “ACATTTGTTGATACAACCATAAAAGGATCATTACACCCATAAATTGATAATTATCACACCCCATTTAACTATAACGCTCTGATCATAGTCAGACCAACATTGCTACGACCCGTATTCGCACCGACAC”, the “relative integration efficiency (log2)” value in series [1] is -2.29 ± 0.32; in series [2], 1.27 ± 0.23.

For “ACATTTGTTGATACAACCATAAAAGGATCATTACACCCATAAATTGATAATTATCCCACCCAATTTAACTATAACGCTCTGATCATAGTCAGACCAACATTGCTACGACCCGTATTCGCACCGACAC”, the entries for the “relative integration efficiency (log2)” value in series [1] and in series [2] were -1.69 ± 0.47 and 1.75 ± 0.057, respectively.

With “ACATTTGTTGATACAACCATAAAAGGATCATTACACCCATAAATTGATAATTATCCCACCCCATTTAACTATAACGCTCTGATCATAGTCAGACCAACATTGCTACGACCCGTATTCGCACCGACAC”, the “relative integration efficiency (log2)” value is -2.12 ± 0.38 in series [1] and 1.38 ± 0.021 in series [2].

Consider “ACATTTGTTGATACAACCATAAAAGGATCATTACACCCATCAATTGATAATTATCACACCCAATTTAACTATAACGCTCTGATCATAGTCAGACCAACATTGCTACGACCCGTATTCGCACCGACAC”, for which the “relative integration efficiency (log2)” value was -3.44 ± 0.37 in series [1] and -0.241 ± 0.022 in series [2].

As to “ACATTTGTTGATACAACCATAAAAGGATCATTACACCCATCAATTGATAATTATCACACCCCATTTAACTATAACGCTCTGATCATAGTCAGACCAACATTGCTACGACCCGTATTCGCACCGACAC”, the figures for the “relative integration efficiency (log2)” value in series [1] and in series [2] were -3.25 ± 0.32 and 0.228 ± 0.13, respectively.

As for “ACATTTGTTGATACAACCATAAAAGGATCATTACACCCATCAATTGATAATTATCCCACCCAATTTAACTATAACGCTCTGATCATAGTCAGACCAACATTGCTACGACCCGTATTCGCACCGACAC”, the “relative integration efficiency (log2)” value in series [1] is -2.99 ± 0.16; in series [2] it was 0.119 ± 0.061.

“ACATTTGTTGATACAACCATAAAAGGATCATTACACCCATCAATTGATAATTATCCCACCCCATTTAACTATAACGCTCTGATCATAGTCAGACCAACATTGCTACGACCCGTATTCGCACCGACAC”: the “relative integration efficiency (log2)” value in series [1] is -3.29 ± 0.28; in series [2], -0.014 ± 0.4.

“ACATTTGTTGATACAACCATAAAAGGATCATTACCCCCATAAATTGATAATTATCACACCCAATTTAACTATAACGCTCTGATCATAGTCAGACCAACATTGCTACGACCCGTATTCGCACCGACAC”: the “relative integration efficiency (log2)” value in series [1] was -2.28 ± 0.24; in series [2], 0.679 ± 0.16.

For “ACATTTGTTGATACAACCATAAAAGGATCATTACCCCCATAAATTGATAATTATCACACCCCATTTAACTATAACGCTCTGATCATAGTCAGACCAACATTGCTACGACCCGTATTCGCACCGACAC”, the figures for the “relative integration efficiency (log2)” value in series [1] and in series [2] were -2.55 ± 0.35 and 1.16 ± 0.12, respectively.

In the case of “ACATTTGTTGATACAACCATAAAAGGATCATTACCCCCATAAATTGATAATTATCCCACCCAATTTAACTATAACGCTCTGATCATAGTCAGACCAACATTGCTACGACCCGTATTCGCACCGACAC”, the “relative integration efficiency (log2)” value was -2.19 ± 0.29 in series [1] and 0.912 ± 0.11 in series [2].

Turning to “ACATTTGTTGATACAACCATAAAAGGATCATTACCCCCATAAATTGATAATTATCCCACCCCATTTAACTATAACGCTCTGATCATAGTCAGACCAACATTGCTACGACCCGTATTCGCACCGACAC”, the figures for the “relative integration efficiency (log2)” value in series [1] and in series [2] were -2.25 ± 0.25 and 0.775 ± 0.15, respectively.

For the sequence “ACATTTGTTGATACAACCATAAAAGGATCATTACCCCCATCAATTGATAATTATCACACCCAATTTAACTATAACGCTCTGATCATAGTCAGACCAACATTGCTACGACCCGTATTCGCACCGACAC”, the “relative integration efficiency (log2)” value in series [1] is -4.48 ± 0.1; in series [2], -1.13 ± 0.29.

As to “ACATTTGTTGATACAACCATAAAAGGATCATTACCCCCATCAATTGATAATTATCACACCCCATTTAACTATAACGCTCTGATCATAGTCAGACCAACATTGCTACGACCCGTATTCGCACCGACAC”, the “relative integration efficiency (log2)” value in series [1] was -4.59 ± 0.85; in series [2] it was -1.38 ± 0.048.

With “ACATTTGTTGATACAACCATAAAAGGATCATTACCCCCATCAATTGATAATTATCCCACCCAATTTAACTATAACGCTCTGATCATAGTCAGACCAACATTGCTACGACCCGTATTCGCACCGACAC”, the “relative integration efficiency (log2)” value is -3.59 ± 0.36 in series [1] and -0.858 ± 0.08 in series [2].

As to “ACATTTGTTGATACAACCATAAAAGGATCATTACCCCCATCAATTGATAATTATCCCACCCCATTTAACTATAACGCTCTGATCATAGTCAGACCAACATTGCTACGACCCGTATTCGCACCGACAC”, the results for the “relative integration efficiency (log2)” value in series [1] and in series [2] were -4.43 ± 0.28 and -1.31 ± 0.15, respectively.

For the sequence “ACATTTGTTGATACAACCATAAAAGGATCATTCACCCATAAATTGATAATTATCACACCCACATTTAACTATAACGCTCTGATCATAGTCAGACCAACATTGCTACGACCCGTATTCGCACCGACAC”, the “relative integration efficiency (log2)” value is -3.13 ± 0.14 in series [1] and -0.0129 ± 0.14 in series [2].

Regarding “ACATTTGTTGATACAACCATAAAAGGATCATTCACCCCTAAATTGATAATTATCACACCCACATTTAACTATAACGCTCTGATCATAGTCAGACCAACATTGCTACGACCCGTATTCGCACCGACAC”, the “relative integration efficiency (log2)” value in series [1] was -4.73 ± 0.18; in series [2], -1.36 ± 0.36.

On to “ACATTTGTTGATACAACCATAAAAGGATTATTACACCCATTAATTGATAATTATCACACCCAATTTAACTATAACGCTCTGATCATAGTCAGACCAACATTGCTACGACCCGTATTCGCACCGACAC”, for which the “relative integration efficiency (log2)” value was -2.02 ± 0.28 in series [1] and 1.27 ± 0.069 in series [2].

“ACATTTGTTGATACAACCATAAAAGTATAATTACACCCATAAATTGATAATTATCACACCCATAAATTGATATTGCCTCTGATCATAGTCAGACCAACATTGCTACGACCCGTATTCGCACCGACAC”: the results for the “relative integration efficiency (log2)” value in series [1] and in series [2] were -0.954 ± 0.16 and -0.606 ± 0.35, respectively.

For the sequence “ACATTTGTTGATACAACCATAAAAGTCGAATTACACCCATAAATTGATAATTATCACACCCATAAATTGATATTGCCTCTGATCATAGTCAGACCAACATTGCTACGACCCGTATTCGCACCGACAC”, the “relative integration efficiency (log2)” value is -2.69 ± 0.26 in series [1] and -3.24 ± 0.7 in series [2].

As for “ACATTTGTTGATACAACCATAAAAGTCGCCGGCACAAACGCCCGGTCGCCGGCGACACAAACGCCCGGTCGCGGTAAGAGGATCATAGTCAGACCAACATTGCTACGACCCGTATTCGCACCGACAC”, the “relative integration efficiency (log2)” value in series [1] was -5.34 ± 0.34; in series [2] it was -2.61 ± 0.042.

As for “ACATTTGTTGATACAACCATAAAATCATAATTACACCCATAAATTCATAATTATCACACCCATAAATTCATATTGCCTCTGATCATAGTCAGACCAACATTGCTACGACCCGTATTCGCACCGACAC”, the “relative integration efficiency (log2)” value in series [1] is -4.92 ± 0.57; in series [2], -1.52 ± 0.48.

Consider “ACATTTGTTGATACAACCATAAAATCATAATTACACCCATAAATTGATAATTATCACACCCCATTTAACTATAACGCTCTGATCATAGTCAGACCAACATTGCTACGACCCGTATTCGCACCGACAC”, for which the “relative integration efficiency (log2)” value in series [1] was -2.85 ± 0.24; in series [2], 1.21 ± 0.17.

In the case of “ACATTTGTTGATACAACCATAAAATCATAATTACACCCATAAATTGATAATTATCCCACCCAATTTAACTATAACGCTCTGATCATAGTCAGACCAACATTGCTACGACCCGTATTCGCACCGACAC”, the “relative integration efficiency (log2)” value in series [1] is -2.19 ± 0.14; in series [2] it was 1.64 ± 0.041.

On to “ACATTTGTTGATACAACCATAAAATCATAATTACACCCATAAATTGATAATTATCCCACCCCATTTAACTATAACGCTCTGATCATAGTCAGACCAACATTGCTACGACCCGTATTCGCACCGACAC”, for which the “relative integration efficiency (log2)” value was -2.73 ± 0.22 in series [1] and 1.23 ± 0.046 in series [2].

As for “ACATTTGTTGATACAACCATAAAATCATAATTACACCCATCAATTGATAATTATCACACCCAATTTAACTATAACGCTCTGATCATAGTCAGACCAACATTGCTACGACCCGTATTCGCACCGACAC”, the “relative integration efficiency (log2)” value in series [1] is -4.01 ± 0.22; in series [2], -0.27 ± 0.36.

The values are drawn from the supplement of paper PMC10201428.
